This note sets out measurements from patent US20250270331A1 (MERUS N V, published 2025).

Where a chain is given by its changes, count along the chain named.

Assay [1] deals with T1, Human TGF-βRII-Fc (R&D; cat. no. 341-BR) (human, UniProt P37173 23-159).
T1 construct: Bought construct; not shown: Fc part of the bought fusion
Put plainly: ligand blocking ELISA: TGF-βRII-Fc on coated TGF-β1, antibody titrated (OD450). For orientation: In an ELISA, binding on a coated surface is turned into a signal by an enzyme label.

Assay [2] addresses T2, F25A.
T2 construct: also called human TGF-βRII with F25A (alanine scan clone)
T2 receptor: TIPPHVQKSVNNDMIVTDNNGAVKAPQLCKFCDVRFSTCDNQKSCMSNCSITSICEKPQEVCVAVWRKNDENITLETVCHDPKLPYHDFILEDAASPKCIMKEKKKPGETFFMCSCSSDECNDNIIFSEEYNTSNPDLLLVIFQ
Kind of assay: shotgun mutagenesis alanine scan, mean fluorescence of the mutant clone in % of wildtype.

Assay [3] has as its target T3, T52A.
T3 construct: also called human TGF-βRII with T52A (alanine scan clone)
T3 receptor: T2 receptor with A25F, T52A
The description is as above.

Assay [4] deals with T4, L28A.
T4 construct: L28 is named only on the sheet; also called human TGF-βRII with L28A (alanine scan clone)
T4 receptor: T2 receptor with A25F, L28A
Described as above.

The target in assay [5] is T5, I54A.
T5 construct: also called human TGF-βRII with I54A (alanine scan clone)
T5 receptor: T2 receptor with A25F, I54A
The description is as above.

Assay [6] concerns the target T6, D119A.
T6 construct: also called human TGF-βRII with D119A (alanine scan clone)
T6 receptor: T2 receptor with A25F, D119A
The description is as above.

Assay [7] concerns the target T7, E120A.
T7 construct: also called human TGF-βRII with E120A (alanine scan clone)
T7 receptor: T2 receptor with A25F, E120A
The assay is described as above.

In assay [8] the target is T1, Human TGF-βRII-Fc (R&D; cat. no. 341-BR). Put plainly: ELISA; blocking of TGF-βRII-Fc binding to coated TGF-β1.

B1: antibody comprising heavy chain variable regions having SEQ ID NO: 94 (antibody, V domains shown)
VH: EVQLVESGGGLVQPGGSLRLSCAASGFTFSRYAMSWVRQAPGKGLEWVSSINTSGGNTFYADSVKGRFTISRDNSKNTLYLQMNSLRAEDTAIYYCAKGIAATGKNYFDPWGQGTLVTVSS
VL: not shown
notes: IgG expressed in 293T freestyle cells
Regarding B1, the “IC50 (read off the curve)” value in assay [1] was ~0.03 µg/mL.

B2: antibody comprising heavy chain variable regions having SEQ ID NO: 93 (antibody, V domains shown)
VH: EVQLVESGGDLVKPGGSLRLSCAASGFTFSNAWMSWVRQAPGKGLEWVGRVKTTVSGGTTDYAAAVKGRFTISRDDSKNTLYLQMNSLKTEDTAIYYCTIDLRDYWGQGTLVTVSS
VL: not shown
notes: From the second round of immunization; tested as bivalent IgG
Consider B2, for which the “Binding Reactivity (% WT)” value in assay [2] was found to be 2.28 % WT; in assay [3], 23.4 % WT; in assay [4], 22.8 % WT; in assay [5] it was 24 % WT; in assay [6], 2.8 % WT; in assay [7] it was 91.5 % WT. In assay [8], the IC50 (usually the point on the concentration scale where inhibition reaches its midpoint) came out at 0.155 µg/mL.
